# Data: patent US20240261333A1, “NOVEL TARGETS FOR ENHANCING ANTI-TUMOR IMMUNITY” (THE BROAD INSTITUTE, INC., priority 2021, published 2024)
# T1: B3GNT2 (Homo sapiens, UniProt Q9NY97)
# T1 construct: The respective ORFs of candidate genes [CD274 (NM_014143), MCL1 (NM_021960), JUNB (NM_002229), and B3GNT2 (NM_006577)] were synthesized; expressed in transfected cells; host or cells: A375 melanoma cells (lentiviral ORF overexpression)
# T1 sequence (Q9NY97 1-397): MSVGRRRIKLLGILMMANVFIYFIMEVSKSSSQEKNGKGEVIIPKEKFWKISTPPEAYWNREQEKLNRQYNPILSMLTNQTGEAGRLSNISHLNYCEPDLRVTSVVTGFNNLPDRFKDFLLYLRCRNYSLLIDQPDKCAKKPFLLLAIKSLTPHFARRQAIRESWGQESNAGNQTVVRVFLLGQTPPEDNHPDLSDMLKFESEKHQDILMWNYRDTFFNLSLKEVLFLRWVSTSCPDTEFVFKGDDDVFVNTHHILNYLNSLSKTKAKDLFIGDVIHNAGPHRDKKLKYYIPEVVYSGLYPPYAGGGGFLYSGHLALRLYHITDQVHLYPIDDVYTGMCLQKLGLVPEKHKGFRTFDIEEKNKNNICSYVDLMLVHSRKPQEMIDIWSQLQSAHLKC
# B1: SPARC (protein)
# chain: APQQEALPDETEVVEETVAEVTEVSVGANPVQVEVGEFDDGAEETEEEVVAENPCQNHHCKHGKVCELDENNTPMCVCQDPTSCPAPIGEFEKVCSNDNKTFDSSCHFFATKCTLEGTKKGHKLHLDYIGPCKYIPPCLDSELTEFPLRMRDWLKNVLVTLYERDEDNNLLTEKQKLRVKKIHENEKRLEAGDHPVELLARDFEKNYNMYIFPVHWQFGQLDQHPIDGYLSHTELAPLRAPLIPMEHCTTRFFETCDLDNDKYIALDEWAGCFGIKQKDIDKDLVI
# B2: PSMA3 (protein)
# chain: SSIGTGYDLSASTFSPDGRVFQVEYAMKAVENSSTAIGIRCKDGVVFGVEKLVLSKLYEEGSNKRLFNVDRHVGMAVAGLLADARSLADIAREEASNFRSNFGYNIPLKHLADRVAMYVHAYTLYSAVRPFGCSFMLGSYSVNDGAQLYMIDPSGVSYGYWGCAIGKARQAAKTEIEKLQMKEMTCRDIVKEVAKIIYIVHDEVKDKAFELELSWVGELTNGRHEIVPKDIREEAEKYAKESLKEEDESDDDNM
# B3: CALML5 (protein)
# chain: AGELTPEEEAQYKKAFSAVDTDGNGTINAQELGAALKATGKNLSEAQLRKLISEVDSDGDGEISFQEFLTAAKKARAGLEDLQVAFRAFDQDGDGHITVDELRRAMAGLGQPLPQEELDAMIREADVDQDGRVNYEEFARMLAQE
# B4: TGM1 (protein)
# chain: MMDGPRSDVGRWGGNPLQPPTTPSPEPEPEPDGRSRRGGGRSFWARCCGCCSCRNAADDDWGPEPSDSRGRGSSSGTRRPGSRGSDSRRPVSRGSGVNAAGDGTIREGMLVVNGVDLLSSRSDQNRREHHTDEYEYDELIVRRGQPFHMLLLLSRTYESSDRITLELLIGNNPEVGKGTHVIIPVGKGGSGGWKAQVVKASGQNLNLRVHTSPNAIIGKFQFTVRTQSDAGEFQLPFDPRNEIYILFNPWCPEDIVYVDHEDWRQEYVLNESGRIYYGTEAQIGERTWNYGQFDHGVLDACLYILDRRGMPYGGRGDPVNVSRVISAMVNSLDDNGVLIGNWSGDYSRGTNPSAWVGSVEILLSYLRTGYSVPYGQCWVFAGVTTTVLRCLGLATRTVTNFNSAHDTDTSLTMDIYFDENMKPLEHLNHDSVWNFHVWNDCWMKRPDLPSGFDGWQVVDATPQETSSGIFCCGPCSVESIKNGLVYMKYDTPFIFAEVNSDKVYWQRQDDGSFKIVYVEEKAIGTLIVTKAISSNMREDITYLYKHPEGSDAERKAVETAAAHGSKPNVYANRGSAEDVAMQVEAQDAVMGQDLMVSVMLINHSSSRRTVKLHLYLSVTFYTGVSGTIFKETKKEVELAPGASDRVTMPVAYKEYRPHLVDQGAMLLNVSGHVKESGQVLAKQHTFRLRTPDLSLTLLGAAVVGQECEVQIVFKNPLPVTLTNVVFRLEGSGLQRPKILNVGDIGGNETVTLRQSFVPVRPGPRQLIASLDSPQLSQVHGVIQVDVAPAPGDGGFFSDAGGDSHLGETIPMASRGGA
# B5: SYNPO (protein, UniProt Q8N3V7 1-929, looked up)
# Synaptopodin: MLGPHLPPPPLAPSEGRPTPCAFQIPDGSYRCLALEAEESSGEEGLQGEVGPTDLEEDEGVSRSGDDSACRVTQGTPQLPKALGIQPPSCSREEQGASQHDDRASQDWDVVKAGQMMTASPSPGPGPRVAQKPALGRSTSLTEKDLKEAKARSQQIAAQLTTPPSSNSRGVQLFNRRRQRVNEFTLESHGQRGQKPSQESLRVLPSSLPGHAPGLSLSSTSLPEPGPPRHPSPQSPDRGVPGHSMEGYSEEASLLRHLEKVASEEEEVPLVVYLKENAALLTANGLHLSQNREAQQSSPAPPPAEVHSPAADVNQNLASPSATLTTPTSNSSHNPPATDVNQNPPATVVPQSLPLSSIQQNSSEAQLPSNGTGPASKPSTLCADGQPQAPAEEVRCSTLLIDKVSTPATTTSTFSREATLIPSSRPPASDFMSSSLLIDIQPNTLVVSADQEMSGRAAATTPTKVYSEVHFTLAKPPSVVNRTARPFGIQAPGGTSQMERSPMLERRHFGEKAPAPQPPSLPDRSPRPQRHIMSRSPMVERRMMGQRSPASERRPLGNFTAPPTYTETLSTAPLASWVRSPPSYSVLYPSSDPKSSHLKGQAVPASKTGILEESMARRGSRKSMFTFVEKPKVTPNPDLLDLVQTADEKRRQRDQGEVGVEEEPFALGAEASNFQQEPAPRDRASPAAAEEVVPEWASCLKSPRIQAKPKPKPNQNLSEASGKGAELYARRQSRMEKYVIESSSHTPELARCPSPTMSLPSSWKYPTNAPGAFRVASRSPARTPPASLYHGYLPENGVLRPEPTKQPPYQLRPSLFVLSPIKEPAKVSPRAASPAKPSSLDLVPNLPKGALPPSPALPRPSRSSPGLYTSPGQDSLQPTAVSPPYGGDISPVSPSRAWSPRAKQAPRPSFSTRNAGIEAQVWKPSFCFK
# B6: PURA (protein)
# chain: ADRDSGSEQGGAALGSGGSLGHPGSGSGSGGGGGGGGGGGGSGGGGGGAPGGLQHETQELASKRVDIQNKRFYLDVKQNAKGRFLKIAEVGAGGNKSRLTLSMSVAVEFRDYLGDFIEHYAQLGPSQPPDLAQAQDEPRRALKSEFLVRENRKYYMDLKENQRGRFLRIRQTVNRGPGLGSTQGQTIALPAQGLIEFRDALAKLIDDYGVEEEPAELPEGTSLTVDNKRFFFDVGSNKYGVFMRVSEVKPTYRNSITVPYKVWAKFGHTFCKYSEEMKKIQEKQREKRAACEQLHQQQQQQQEETAAATLLLQGEEEGEED
# B7: NAP1L1 (protein)
# chain: ADIDNKEQSELDQDLDDVEEVEEEETGEETKLKARQLTVQMMQNPQILAALQERLDGLVETPTGYIESLPRVVKRRVNALKNLQVKCAQIEAKFYEEVHDLERKYAVLYQPLFDKRFEIINAIYEPTEEECEWKPDEEDEISEELKEKAKIEDEKKDEEKEDPKGIPEFWLTVFKNVDLLSDMVQEHDEPILKHLKDIKVKFSDAGQPMSFVLEFHFEPNEYFTNEVLTKTYRMRSEPDDSDPFSFDGPEIMGCTGCQIDWKKGKNVTLKTIKKKQKHKGRGTVRTVTKTVSNDSFFNFFAPPEVPESGDLDDDAEAILAADFEIGHFLRERIIPRSVLYFTGEAIEDDDDDYDEEGEEADEEGEEEGDEENDPDYDPKKDQNPAEC
# B8: SERPINB3 (protein)
# chain: MNSLSEANTKFMFDLFQQFRKSKENNIFYSPISITSALGMVLLGAKDNTAQQIKKVLHFDQVTENTTGKAATYHVDRSGNVHHQFQKLLTEFNKSTDAYELKIANKLFGEKTYLFLQEYLDAIKKFYQTSVESVDFANAPEESRKKINSWVESQTNEKIKNLIPEGNIGSNTTLVLVNAIYFKGQWEKKFNKEDTKEEKFWPNKNTYKSIQMMRQYTSFHFASLEDVQAKVLEIPYKGKDLSMIVLLPNEIDGLQKLEEKLTAEKLMEWTSLQNMRETRVDLHLPRFKVEESYDLKDTLRTMGMVDIFNGDADLSGMTGSRGLVLSGVLHKAFVEVTEEGAEAAAATAVVGFGSSPTSTNEEFHCNHPFLFFIRQNKTNSILFYGRFSSP
# B9: LUC7L3 (protein, UniProt O95232 1-432, looked up)
# Luc7-like protein 3: MISAAQLLDELMGRDRNLAPDEKRSNVRWDHESVCKYYLCGFCPAELFTNTRSDLGPCEKIHDENLRKQYEKSSRFMKVGYERDFLRYLQSLLAEVERRIRRGHARLALSQNQQSSGAAGPTGKNEEKIQVLTDKIDVLLQQIEELGSEGKVEEAQGMMKLVEQLKEERELLRSTTSTIESFAAQEKQMEVCEVCGAFLIVGDAQSRVDDHLMGKQHMGYAKIKATVEELKEKLRKRTEEPDRDERLKKEKQEREEREKEREREREERERKRRREEEEREKERARDRERRKRSRSRSRHSSRTSDRRCSRSRDHKRSRSRERRRSRSRDRRRSRSHDRSERKHRSRSRDRRRSKSRDRKSYKHRSKSRDREQDRKSKEKEKRGSDDKKSSVKSGSREKQSEDTNTESKESDTKNEVNGTSEDIKSEGDTQSN
# B10: ERLEC1 (protein)
# chain: LPQLSDDIPFRVNWPGTEFSLPTTGVLYKEDNYVIMTTAHKEKYKCILPLVTSGDEEEEKDYKGPNPRELLEPLFKQSSCSYRIESYWTYEVCHGKHIRQYHEEKETGQKINIHEYYLGNMLAKNLLFEKEREAEEKEKSNEIPTKNIEGQMTPYYPVGMGNGTPCSLKQNRPRSSTVMYICHPESKHEILSVAEVTTCEYEVVILTPLLCSHPKYRFRASPVNDIFCQSLPGSPFKPLTLRQLEQQEEILRVPFRRNKEEDLQSTKEERFPAIHKSIAIGSQPVLTVGTTHISKLTDDQLIKEFLSGSYCFRGGVGWWKYEFCYGKHVHQYHEDKDSGKTSVVVGTWNQEEHIEWAKKNTARAYHLQDDGTQTVRCKESDSPHAVTVYMLEPHSCQYILGVESPVICKILDTADENGLLSLPN
# Molecular target: T1, B3GNT2
# Assay: Co-IP of FLAG-tagged B3GNT2 followed by mass spectrometry
# Assay type: cell-based
# Design: C-term IgG / C-term flag: unit not given here
# Details: Co-IP followed by mass spectrometry of B3GNT2; C-term tag, FLAG pull-down
# Method in brief: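 FLAG-tagged B3GNT2 immunoprecipitated from cell lysate (HEPES, 1% Triton X-100, 150 mM NaCl) with anti-FLAG versus […], overnight at 4° C, then captured on Protein A/G magnetic beads for 4 h. Two biological replicates per condition. Peptides fractionated and analyzed by nano-LC on an Orbitrap Elite in data-dependent mode.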
row,C-term flag,Molecule
1,4,B1
2,0,B2
3,4,B3
4,8,B4
5,7,B5
6,3,B6
7,4,B7
8,9,B8
9,3,B9

# Same assay, conditions: Co-IP followed by mass spectrometry of B3GNT2; C-term tag, IgG pull-down
row,C-term IgG,Molecule
1,0,B1
2,0,B2
3,0,B3
4,10,B4
5,4,B5
6,0,B6
7,0,B7
8,2,B8
9,3,B9

# Same assay, conditions: Co-IP followed by mass spectrometry of B3GNT2; N-term tag, FLAG pull-down
row,N-term FLAG,Molecule
1,0,B1
2,4,B2
3,0,B3
4,17,B4
5,4,B5
6,0,B6
7,0,B7
8,10,B8
9,4,B9

# Same assay, conditions: Co-IP followed by mass spectrometry of B3GNT2; N-term tag, IgG pull-down
row,N-term IgG,Molecule
1,0,B1
2,0,B2
3,0,B3
4,9,B4
5,4,B5
6,2,B6
7,0,B7
8,3,B8
9,2,B9

# Same assay, conditions: Co-IP with FLAG antibody, C-terminally FLAG-tagged B3GNT2; mass spectrometry count, unit not given
row,C-term flag,Molecule
1,3,B10

# Same assay, conditions: Co-IP with FLAG antibody, N-terminally FLAG-tagged B3GNT2; mass spectrometry count, unit not given
row,N-term FLAG,Molecule
1,0,B10

# Same assay, conditions: Co-IP with IgG control antibody, C-terminally FLAG-tagged B3GNT2; mass spectrometry count, unit not given
row,C-term IgG,Molecule
1,0,B10

# Same assay, conditions: Co-IP with IgG control antibody, N-terminally FLAG-tagged B3GNT2; mass spectrometry count, unit not given
row,N-term IgG,Molecule
1,0,B10
